Consider 3 proteins from article PMC11255602 (Protein Science : A Publication of the Protein Society, 2024).

First the molecules themselves.
B1: tetramer interface mutant (TIM) PRMT1 Y262A/Y304A/L341A (enzyme, human (rat sequence humanized by H161Y), UniProt Q99873-3 1-353, looked up)
chain: MAAAEAANCIMEVSCGQAESSEKPNAEDMTSKDYYFDSYAHFGIHEEMLKDEVRTLTYRNSMFHNRHLFKDKVVLDVGSGTGILCMFAAKAGARKVIGIECSSISDYAVKIVKANKLDHVVTIIKGKVEEVELPVEKVDIIISEWMGYCLFYESMLNTVLYARDKWLAPDGLIFPDRATLYVTAIEDRQYKDYKIHWWENVYGFDMSCIKDVAIKEPLVDVVDPKQLVTNACLIKEVDIYTVKVEDLTFTSPFCLQVKRNDAVHALVAYFNIEFTRCHKRTGFSTSPESPYTHWKQTVFYMEDALTVKTGEEIFGTIGMRPNAKNNRDLDFTIDLDFKGQACELSCSTDYRMR
B2: tetramer interface mutant 2 (TIM2) PRMT1 H64A/R66A/H278A (enzyme, human (rat sequence humanized by H161Y), UniProt Q99873-3 1-353, looked up)
chain: MAAAEAANCIMEVSCGQAESSEKPNAEDMTSKDYYFDSYAHFGIHEEMLKDEVRTLTYRNSMFANAHLFKDKVVLDVGSGTGILCMFAAKAGARKVIGIECSSISDYAVKIVKANKLDHVVTIIKGKVEEVELPVEKVDIIISEWMGYCLFYESMLNTVLYARDKWLAPDGLIFPDRATLYVTAIEDRQYKDYKIHWWENVYGFDMSCIKDVAIKEPLVDVVDPKQLVTNACLIKEVDIYTVKVEDLTFTSPFCLQVKRNDYVHALVAYFNIEFTRCAKRTGFSTSPESPYTHWKQTVFYMEDYLTVKTGEEIFGTIGMRPNAKNNRDLDFTIDLDFKGQLCELSCSTDYRMR
B3: H293A/E153A (HE) PRMT1 (enzyme, human (rat sequence humanized by H161Y), UniProt Q99873-3 1-353, looked up)
chain: MAAAEAANCIMEVSCGQAESSEKPNAEDMTSKDYYFDSYAHFGIHEEMLKDEVRTLTYRNSMFHNRHLFKDKVVLDVGSGTGILCMFAAKAGARKVIGIECSSISDYAVKIVKANKLDHVVTIIKGKVEEVELPVEKVDIIISEWMGYCLFYASMLNTVLYARDKWLAPDGLIFPDRATLYVTAIEDRQYKDYKIHWWENVYGFDMSCIKDVAIKEPLVDVVDPKQLVTNACLIKEVDIYTVKVEDLTFTSPFCLQVKRNDYVHALVAYFNIEFTRCHKRTGFSTSPESPYTAWKQTVFYMEDYLTVKTGEEIFGTIGMRPNAKNNRDLDFTIDLDFKGQLCELSCSTDYRMR

This data set concerns the molecule itself. Briefly: native gel or EMSA.
For the protein B1, the “stoichiometry N” value is 2.

For B2, the “stoichiometry N” value was found to be 2.

In the case of B3, the “stoichiometry N” value came out at 4.

Usually stoichiometry N stands for the number of molecules, sites or subunits per partner or assembly.
